# Test results reported in publication PMC13507242.
# What was measured:
# [1] = biological target: endogenous CD33^M of human U937 monocytic cells (human (endogenous in U937))
# [2] = biological target: CD33^M ectodomain (CD33^M ECD), residues 21-232, Endo Hf-deglycosylated (human); assay: MST; Monolith NT.115, 23 °C, deglycosylated CD33 ECD labelled with Alexa Fluor 647; 20 mM HEPES pH 7.5, 150 mM NaCl, 0.05% Tween-20
# [3] = biological target: endogenous CD33^M of human U937 monocytic cells (human (endogenous in U937)); assay: co-IP; U937 cells (endogenous CD33) exposed to CLU (60 nM), desCLU, rCLU or CLU + Aβ; CD33 immunoprecipitated from lysates, blot for CLU
# [4] = biological target: HA-tagged CD33^M (full-length major isoform) expressed in HEK293 / HEK293T cells (human); assay: co-IP; HEK293 / HEK293T cells expressing HA-tagged CD33 incubated with CLU (30 nM in the methods, 60 nM in the results), washed, lysed in 1% CHAPSO/TBS; IP with anti-HA, blot for CLU
# HA-tagged CD33^M (full-length major isoform) expressed in HEK293 / HEK293T cells (human), sequence (P20138 18-364): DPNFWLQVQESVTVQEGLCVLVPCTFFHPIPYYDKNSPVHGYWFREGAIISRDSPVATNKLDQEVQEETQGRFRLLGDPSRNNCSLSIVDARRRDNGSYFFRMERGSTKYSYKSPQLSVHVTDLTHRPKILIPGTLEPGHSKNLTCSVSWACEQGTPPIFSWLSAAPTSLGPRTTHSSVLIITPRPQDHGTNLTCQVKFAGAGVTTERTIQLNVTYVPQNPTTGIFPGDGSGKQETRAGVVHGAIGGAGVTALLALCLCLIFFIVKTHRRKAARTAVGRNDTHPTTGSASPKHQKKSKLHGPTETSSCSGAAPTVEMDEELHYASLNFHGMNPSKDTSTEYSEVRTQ
# [5] = biological target: CD33^M ectodomain (CD33^M ECD), residues 21-232, Endo Hf-deglycosylated (human); assay: BLI; Octet RED384, 30 °C, 20 mM HEPES, 200 mM NaCl, 1 mg/mL casein, pH 7.5; Ni-NTA biosensors loaded with His6 deglycosylated CD33^M ECD WT or R119A; CLU 0.0025-5 µM; steady state (895-900 s), Hill equation; avidity
# [6] = biological target: CD33^M ectodomain (CD33^M ECD), residues 21-232, Endo Hf-deglycosylated (human); assay: as above; remark: listed apart in the source
# [7] = biological target: CD33^M ectodomain (CD33^M ECD), residues 21-232, Endo Hf-deglycosylated (human); assay: SEC-MALS; Superdex 75 10/300 GL, 20 mM HEPES, 200 mM NaCl, pH 7.5; loaded at 100 and 20 µM (<10 and 2 µM on the column); dimer to monomers
# [8] = biological target: CD33^M ectodomain (CD33^M ECD), residues 21-232, Endo Hf-deglycosylated (human); assay: AUC; sedimentation velocity (0.4 mg/ml, 40,000 rpm) and sedimentation equilibrium (0.2, 0.1, 0.05 mg/ml, 16,000 or 20,000 rpm), 20 °C, 20 mM HEPES, 200 mM NaCl, pH 7.5; dimer to monomers
# [9] = biological target: CD33^M ectodomain (CD33 ECD), residues 21-232, glycosylated (human); assay: as above
# endogenous CD33^M of human U937 monocytic cells (human (endogenous in U937)), sequence (P20138 18-364): as above
substance,measurement,setting,value
native sialylated clusterin (CLU) purified from human plasma (from UniProt P10909 23-227; P10909 228-449) (ligand),"CD33 ITIM tyrosine phosphorylation (CD33^M-pTyr) in U937 cells, relative to no treatment (relative to no treatment (1.00))",[1],6.28
same,Kd,[2],55.1 nM
same,CD33-bound CLU in the co-IP (panel e),[3],1.04
same,ratio of CLU to CD33 band intensities,[3],1.23 arb. units
same,CD33-bound CLU in the co-IP (panel d),[4],1.15
same,ratio of co-precipitated CLU to CD33 band intensities,[4],0.85 arb. units
same,ratio of co-precipitated CLU to CD33 band intensities (panel c),[4],0.425 arb. units
same,"ratio of co-precipitated CLU to CD33 band intensities, cells expressing CD33^M + CD33^m",[4],0.45 arb. units
same,Kd,[5],28.9 nM
same,Kd,[6],27.9 nM
"CD33^M ectodomain (CD33^M ECD), residues 21-232, Endo Hf-deglycosylated (domain or fragment)",Kd,[7],100 nM
same,stoichiometry N,[7],2
same,Kd,[8],710 nM
"CD33^M ectodomain (CD33 ECD), residues 21-232, glycosylated (domain or fragment)",Kd,[9],300 nM
CLU + Aβ1-42 oligomers (CLU/Aβ 1-42 mixture) (from UniProt P10909 23-227; P10909 228-449; P05067 672-713) (complex),"CD33 ITIM tyrosine phosphorylation (CD33^M-pTyr) in U937 cells, relative to no treatment (relative to no treatment (1.00))",[1],11.9
same,CD33-bound CLU in the co-IP (panel e),[3],1.06
same,CD33-bound CLU in the co-IP (panel d),[4],1.38
same,Kd,[6],28.2 nM
